Residue numbers refer to the chain shown, from its start.

In assay [1] the target is T1, cynomolgus monkey FcγRIIIaS extracellular domain, C-terminal His-tag (cynomolgus monkey, UniProt A3RFZ7 21-206 (rhesus entry)).
T1 construct: also called cyno FcγRIIIaS; cynoFcγRIIIaS; not shown: His-tag added to C-terminus
As to the kind of experiment: SPR (Biacore), KD of SG1 / KD of variant.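 Also: relative to parent M103205H795-SG1 carrying the SG1 human heavy chain constant region.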 The procedure: (§1) The kinetic analysis of interactions between these antibodies and FcγR was carried out using BIACORE® T200 or BIACORE® 4000 (GE Healthcare). HBS-EP+ (GE Healthcare) was used as the running buffer, and the measurement temperature was set to 25° C. A chip produced by immobilizing Protein A. Protein A/G or mouse anti-human IgG kappa light chain (BD Biosciences) onto a Series S Sensor Chip CM4 or CM5 (GE Healthcare) by the amine-coupling method was used. […] After the measurement, the antibody captured on the chip was washed off by allowing reaction with 10 mM glycine-HCl, pH1.5 and 25 mM NaOH so that the chip was regenerated and used repeatedly. The sensorgrams obtained as measurement results were analyzed by the 1:1 Langmuir binding model using the BIACORE® Evaluation Software to calculate the binding rate constant ka (L/mol/s) and dissociation rate constant kd (l/s), and the dissociation constant KD (mol/L) was calculated from these values. […] Regarding such interactions, KD values were calculated using the following 1:1 binding model described in BIACORE® T100 Software Handbook BR1006-48 Edition AE.
(§2) The behavior of interacting molecules according to the 1:1 binding model on BIACORE® can be described by Equation 1: Req=C·R max/(KD+C)+RI, wherein, Req is a plot of steady-state binding levels to analyte concentration. C is concentration, RI is bulk refractive index contribution in the sample, and Rmax is analyte binding capacity of the surface. When this equation is rearranged, KD can be expressed as Equation 2: KD=C·Rmax/(Req−RI)−C. KD can be calculated by substituting the values of Rmax, RI, and C into Equation 1 or Equation 2. From the current measurement conditions, RI=0, C=2 μmol/L can be used.
On the technique in general: In SPR one partner is held on a chip, and binding of the other changes the refractive index at the surface.

The target of assay [2] is T2, human FcγRIIaH extracellular domain, C-terminal His-tag (human, UniProt P12318 34-217).
T2 construct: also called human FcγRIIa (type H); FcgRIIaH; not shown: His-tag added to C-terminus
T2 sequence: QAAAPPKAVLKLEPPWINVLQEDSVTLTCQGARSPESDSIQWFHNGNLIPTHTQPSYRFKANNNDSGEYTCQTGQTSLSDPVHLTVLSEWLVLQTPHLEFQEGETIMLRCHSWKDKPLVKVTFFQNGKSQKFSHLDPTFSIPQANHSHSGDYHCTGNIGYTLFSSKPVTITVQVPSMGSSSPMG
As to the kind of experiment: SPR (Biacore), KD of SG1 / KD of variant.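 Also: relative to parent M103205H795-SG1 carrying the SG1 human heavy chain constant region.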 The procedure: as §1, §2

For assay [3], the target named is T3, cynomolgus monkey FcγRIIa3 extracellular domain, C-terminal His-tag (cynomolgus monkey).
T3 construct: also called cyno FcγRIIa3; cynoFcgRIIa3; not shown: His-tag added to C-terminus
T3 chain: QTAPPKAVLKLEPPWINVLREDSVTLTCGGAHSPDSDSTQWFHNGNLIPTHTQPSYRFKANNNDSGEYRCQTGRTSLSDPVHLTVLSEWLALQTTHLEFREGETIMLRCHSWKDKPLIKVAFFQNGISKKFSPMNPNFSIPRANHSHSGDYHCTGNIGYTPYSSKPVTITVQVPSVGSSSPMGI
As to the kind of experiment: SPR (Biacore), KD of SG1 / KD of variant.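 Also: relative to parent M103205H795-SG1 carrying the SG1 human heavy chain constant region.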 The procedure:
as §1, §2

Assay [4] concerns the target T4, human FcγRIIIaV extracellular domain, C-terminal His-tag (human, UniProt P08637 17-208).
T4 construct: also called FcgRIIIaV; not shown: His-tag added to C-terminus
As to the kind of experiment: SPR (Biacore), KD of SG1 / KD of variant.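 Also: relative to parent M103205H795-SG1 carrying the SG1 human heavy chain constant region.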 The protocol:
as §1, §2

Assay [5] has as its target T5, human FcγRIIaR extracellular domain, C-terminal His-tag (human, UniProt P12318 34-217).
T5 construct: also called human FcγRIIa (type R); FcgRIIaR; not shown: His-tag added to C-terminus
T5 chain: T2 sequence with H134R
As to the kind of experiment: SPR (Biacore), KD of SG1 / KD of variant. The procedure:
as §1, §2

Assay [6] concerns the target T6, human FcγRIIb extracellular domain, C-terminal His-tag (human, UniProt P31994 43-217).
T6 construct: also called FcgRIIb (human); not shown: His-tag added to C-terminus
T6 sequence: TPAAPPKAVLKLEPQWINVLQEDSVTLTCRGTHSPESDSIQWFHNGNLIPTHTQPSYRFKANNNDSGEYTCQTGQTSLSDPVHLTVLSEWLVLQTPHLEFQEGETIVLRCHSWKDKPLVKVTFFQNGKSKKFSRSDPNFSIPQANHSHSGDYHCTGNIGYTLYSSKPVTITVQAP
As to the kind of experiment: SPR (Biacore), KD of SG1 / KD of variant. The procedure:
as §1, §2

The target in assay [7] is T7, cynomolgus monkey FcγRIIa1 extracellular domain, C-terminal His-tag (cynomolgus monkey).
T7 construct: also called cyno FcγRIIa1; cynoFcgRIIa1; not shown: His-tag added to C-terminus
T7 chain: T3 chain with T95P, A121T, S128A, P133H, N135D
As to the kind of experiment: SPR (Biacore), KD of SG1 / KD of variant. The protocol:
as §1, §2

The target in assay [8] is T8, cynomolgus monkey FcγRIIa2 extracellular domain, C-terminal His-tag (cynomolgus monkey).
T8 construct: also called cyno FcγRIIa2; cynoFcgRIIa2; not shown: His-tag added to C-terminus
T8 chain: T3 chain with I127K, K130N, P133H, R142Q
As to the kind of experiment: SPR (Biacore), KD of SG1 / KD of variant. The protocol: as §1, §2

Assay [9] has as its target T1, cynomolgus monkey FcγRIIIaS …. As to the kind of experiment: SPR (Biacore), antibody captured, FcgR analyte, 25 C. The protocol: as §1, §2
Assay [10] addresses T2, human FcγRIIaH extracellular domain, …. The assay is described as above. The protocol:
as §1, §2

Assay [11] concerns the target T3, cynomolgus monkey FcγRIIa3 …. The description is as above. The procedure: as §1, §2
The target in assay [12] is T4, human FcγRIIIaV extracellular domain, …. The assay is described as above. The protocol:
as §1, §2

Assay [13] concerns the target T5, human FcγRIIaR extracellular domain, …. The assay is described as above. The procedure:
as §1, §2

Assay [14] addresses T6, human FcγRIIb extracellular domain, …. The description is as above. The protocol: as §1, §2
Assay [15] concerns the target T7, cynomolgus monkey FcγRIIa1 …. Described as above. The procedure:
as §1, §2

T4 sequence (P08637 17-208 F176V): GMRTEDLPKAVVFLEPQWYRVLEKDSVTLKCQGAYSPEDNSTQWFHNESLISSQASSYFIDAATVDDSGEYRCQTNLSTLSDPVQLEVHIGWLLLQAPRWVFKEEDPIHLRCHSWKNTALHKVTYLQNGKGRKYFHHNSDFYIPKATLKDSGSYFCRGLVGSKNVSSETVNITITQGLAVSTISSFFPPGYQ
T1 sequence (A3RFZ7 21-206): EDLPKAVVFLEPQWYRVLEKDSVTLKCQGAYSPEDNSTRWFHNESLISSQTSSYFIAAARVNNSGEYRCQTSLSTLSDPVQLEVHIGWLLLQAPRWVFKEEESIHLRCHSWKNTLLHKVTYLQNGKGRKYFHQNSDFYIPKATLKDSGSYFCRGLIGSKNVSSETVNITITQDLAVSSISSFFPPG

B1: M103205H795-MY316/M103202L889-SK1 (antibody, human IgG1, kappa)
heavy: QVTLKESGPVLVKPTETLTLTCTVSGIDLSHDDISWVRQAPGKGLEWVGIISYAGSTYYASWAKGRLTISKDTSKNQVVLTMTNMDPVDTATYYCARGVPAYSHGGDLWGQGTLVTVSSASTKGPSVFPLAPSSKSTSGGTAALGCLVKDYFPEPVTVSWNSGALTSGVHTFPAVLQSSGLYSLSSVVTVPSSSLGTQTYICNVNHKPSNTKVDKKVEPKSCDKTHTCPPCPAPELLLGPSVFLFPPKPKDTLMISRTPEVTCVVVDVSEEDPEVKFNWYVDGVEVHNAKTKPREELYNSTYRVVSVLTVLHQDWLNGKEYKCKVSNKALPKPIEKTISKAKGQPREPQVYTLPPSREEMTKNQVSLTCLVKGFYPSDIAVEWESNGQPENNYKTTPKVLDSDGSFFLYSKLTVDKSRWQQGNVFSCSVMHEALHNHYTQKSLSLSP
light: DIVMTQSPATLSLSPGERATLSCTSSQSVYHANWLSWFQQKPGQPPKLLIYWASTLAYGVPSRFSGSGSGTDFTLTISSLQPEDAATYYCAGGYGGGRYAFGQGTKVEIKRTVAAPSVFIFPPSDEQLKSGTASVVCLLNNFYPREAKVQWKVDNALQSGNSQESVTEQDSKDSTYSLSSTLTLSKADYEKHKVYACEVTHQGLSSPVTKSFNRGEC
Usually Kd stands for the constant that tells how readily two partners part at equilibrium. Turning to B1, the “KD fold (SG1 = 1)” value in [1] was found to be 0.15 fold; in [2], 1.6 fold; in assay [3], 0.6 fold; in assay [4] it was 0.05 fold; in [5], 1.1 fold; in [6] it was 1.2 fold. Besides, the “KD fold (SG1 = 1)” value in assay [7] and in assay [8] was 0.6 fold throughout. The Kd in [9] amounted to 2.4 µM; in assay [10], 0.44 µM; in [11] it was 22 µM; in assay [12] it was 17 µM; in assay [13], 1.1 µM; in assay [14], 4 µM. Further, binding in assay [15] was characterised by a dissociation constant (Kd) of 5.1 µM.

These data come from US20200317768A1 (published 2020).
